Measurements taken from US20160145684A1.

Tests used:
[1] = biological target: Human statherin protein (human) (UniProt P02808); test: indirect ELISA; coat: A-Saliva (pure saliva of individual A) diluted 1:40; replicate R1
[2] = biological target: Human statherin protein (human) (UniProt P02808); test: indirect ELISA; coat: A-Saliva (pure saliva of individual A) diluted 1:40; replicate R2
[3] = biological target: Human statherin protein (human) (UniProt P02808); test: indirect ELISA; coat: A-Saliva (pure saliva of individual A) diluted 1:40; replicate R3
[4] = biological target: Human statherin protein (human) (UniProt P02808); test: indirect ELISA; coat: B-Saliva (pure saliva of individual B) diluted 1:40; replicate R1
[5] = biological target: Human statherin protein (human) (UniProt P02808); test: indirect ELISA; coat: B-Saliva (pure saliva of individual B) diluted 1:40; replicate R2
[6] = biological target: Human statherin protein (human) (UniProt P02808); test: indirect ELISA; coat: B-Saliva (pure saliva of individual B) diluted 1:40; replicate R3
[7] = biological target: Human statherin protein (human) (UniProt P02808); test: indirect ELISA; coat: sample 1, 50 uL saliva/100 uL in urine, diluted 1:40; replicate R1
[8] = biological target: Human statherin protein (human) (UniProt P02808); test: indirect ELISA; coat: sample 1, 50 uL saliva/100 uL in urine, diluted 1:40; replicate R2
[9] = biological target: Human statherin protein (human) (UniProt P02808); test: indirect ELISA; coat: sample 1, 50 uL saliva/100 uL in urine, diluted 1:40; replicate R3
[10] = biological target: Human statherin protein (human) (UniProt P02808); test: indirect ELISA; coat: sample 2, 25 uL saliva/100 uL in urine, diluted 1:40; replicate R1
[11] = biological target: Human statherin protein (human) (UniProt P02808); test: indirect ELISA; coat: sample 2, 25 uL saliva/100 uL in urine, diluted 1:40; replicate R2
[12] = biological target: Human statherin protein (human) (UniProt P02808); test: indirect ELISA; coat: sample 2, 25 uL saliva/100 uL in urine, diluted 1:40; replicate R3
[13] = biological target: Human statherin protein (human) (UniProt P02808); test: indirect ELISA; coat: sample 3, 12.5 uL saliva/100 uL in urine, diluted 1:40; replicate R1
[14] = biological target: Human statherin protein (human) (UniProt P02808); test: indirect ELISA; coat: sample 3, 12.5 uL saliva/100 uL in urine, diluted 1:40; replicate R2
[15] = biological target: Human statherin protein (human) (UniProt P02808); test: indirect ELISA; coat: sample 3, 12.5 uL saliva/100 uL in urine, diluted 1:40; replicate R3
[16] = biological target: Human statherin protein (human) (UniProt P02808); test: indirect ELISA; coat: sample 4, 6.25 uL saliva/100 uL in urine, diluted 1:40; replicate R1
[17] = biological target: Human statherin protein (human) (UniProt P02808); test: indirect ELISA; coat: sample 4, 6.25 uL saliva/100 uL in urine, diluted 1:40; replicate R2
[18] = biological target: Human statherin protein (human) (UniProt P02808); test: indirect ELISA; coat: sample 4, 6.25 uL saliva/100 uL in urine, diluted 1:40; replicate R3
[19] = biological target: Human statherin protein (human) (UniProt P02808); test: indirect ELISA; coat: sample 5, 3.125 uL saliva/100 uL in urine, diluted 1:40; replicate R1
[20] = biological target: Human statherin protein (human) (UniProt P02808); test: indirect ELISA; coat: sample 5, 3.125 uL saliva/100 uL in urine, diluted 1:40; replicate R2
[21] = biological target: Human statherin protein (human) (UniProt P02808); test: indirect ELISA; coat: sample 5, 3.125 uL saliva/100 uL in urine, diluted 1:40; replicate R3
[22] = biological target: Human statherin protein (human) (UniProt P02808); test: indirect ELISA; coat: sample 6, 1.5625 uL saliva/100 uL in urine, diluted 1:40; replicate R1
[23] = biological target: Human statherin protein (human) (UniProt P02808); test: indirect ELISA; coat: sample 6, 1.5625 uL saliva/100 uL in urine, diluted 1:40; replicate R2
[24] = biological target: Human statherin protein (human) (UniProt P02808); test: indirect ELISA; coat: sample 6, 1.5625 uL saliva/100 uL in urine, diluted 1:40; replicate R3
[25] = biological target: Human statherin protein (human) (UniProt P02808); test: indirect ELISA; coat: sample 7, 0.78125 uL saliva/100 uL in urine, diluted 1:40; replicate R1
[26] = biological target: Human statherin protein (human) (UniProt P02808); test: indirect ELISA; coat: sample 7, 0.78125 uL saliva/100 uL in urine, diluted 1:40; replicate R2
[27] = biological target: Human statherin protein (human) (UniProt P02808); test: indirect ELISA; coat: sample 7, 0.78125 uL saliva/100 uL in urine, diluted 1:40; replicate R3
[28] = biological target: Human statherin protein (human) (UniProt P02808); test: indirect ELISA; coat: A-Saliva (pure saliva of individual A) diluted 1:40; mean of triplicate
[29] = biological target: Human statherin protein (human) (UniProt P02808); test: indirect ELISA; coat: B-Saliva (pure saliva of individual B) diluted 1:40; mean of triplicate
[30] = biological target: Human statherin protein (human) (UniProt P02808); test: indirect ELISA; coat: sample 1, 50 uL saliva/100 uL in urine, diluted 1:40; mean of triplicate
[31] = biological target: Human statherin protein (human) (UniProt P02808); test: indirect ELISA; coat: sample 2, 25 uL saliva/100 uL in urine, diluted 1:40; mean of triplicate
[32] = biological target: Human statherin protein (human) (UniProt P02808); test: indirect ELISA; coat: sample 3, 12.5 uL saliva/100 uL in urine, diluted 1:40; mean of triplicate
[33] = biological target: Human statherin protein (human) (UniProt P02808); test: indirect ELISA; coat: sample 4, 6.25 uL saliva/100 uL in urine, diluted 1:40; mean of triplicate
[34] = biological target: Human statherin protein (human) (UniProt P02808); test: indirect ELISA; coat: sample 5, 3.125 uL saliva/100 uL in urine, diluted 1:40; mean of triplicate
[35] = biological target: Human statherin protein (human) (UniProt P02808); test: indirect ELISA; coat: sample 6, 1.5625 uL saliva/100 uL in urine, diluted 1:40; mean of triplicate
[36] = biological target: Human statherin protein (human) (UniProt P02808); test: indirect ELISA; coat: sample 7, 0.78125 uL saliva/100 uL in urine, diluted 1:40; mean of triplicate
[37] = biological target: Human statherin protein (human) (UniProt P02808); test: indirect ELISA; coat: A-SP-U (about 500 uL spit in 30 mL urine, individual A) diluted 1:40; replicate R1
[38] = biological target: Human statherin protein (human) (UniProt P02808); test: indirect ELISA; coat: A-SP-U (about 500 uL spit in 30 mL urine, individual A) diluted 1:40; replicate R2
[39] = biological target: Human statherin protein (human) (UniProt P02808); test: indirect ELISA; coat: A-SP-U (about 500 uL spit in 30 mL urine, individual A) diluted 1:40; replicate R3
[40] = biological target: Human statherin protein (human) (UniProt P02808); test: indirect ELISA; coat: B-SP-U (about 500 uL spit in 30 mL urine, individual B) diluted 1:40; replicate R1
[41] = biological target: Human statherin protein (human) (UniProt P02808); test: indirect ELISA; coat: B-SP-U (about 500 uL spit in 30 mL urine, individual B) diluted 1:40; replicate R2
[42] = biological target: Human statherin protein (human) (UniProt P02808); test: indirect ELISA; coat: B-SP-U (about 500 uL spit in 30 mL urine, individual B) diluted 1:40; replicate R3
[43] = biological target: Human statherin protein (human) (UniProt P02808); test: indirect ELISA; coat: A-SB-U (buccal swab stirred in 30 mL urine, individual A) diluted 1:40; replicate R1
[44] = biological target: Human statherin protein (human) (UniProt P02808); test: indirect ELISA; coat: A-SB-U (buccal swab stirred in 30 mL urine, individual A) diluted 1:40; replicate R2
[45] = biological target: Human statherin protein (human) (UniProt P02808); test: indirect ELISA; coat: A-SB-U (buccal swab stirred in 30 mL urine, individual A) diluted 1:40; replicate R3
[46] = biological target: Human statherin protein (human) (UniProt P02808); test: indirect ELISA; coat: B-SB-U (buccal swab stirred in 30 mL urine, individual B) diluted 1:40; replicate R1
[47] = biological target: Human statherin protein (human) (UniProt P02808); test: indirect ELISA; coat: B-SB-U (buccal swab stirred in 30 mL urine, individual B) diluted 1:40; replicate R2
[48] = biological target: Human statherin protein (human) (UniProt P02808); test: indirect ELISA; coat: B-SB-U (buccal swab stirred in 30 mL urine, individual B) diluted 1:40; replicate R3
[49] = biological target: Human statherin protein (human) (UniProt P02808); test: indirect ELISA; coat: sample 1, 50 uL saliva/100 uL in urine, diluted 1:40; mean minus saliva-free urine blank
[50] = biological target: Human statherin protein (human) (UniProt P02808); test: indirect ELISA; coat: sample 2, 25 uL saliva/100 uL in urine, diluted 1:40; mean minus saliva-free urine blank
[51] = biological target: Human statherin protein (human) (UniProt P02808); test: indirect ELISA; coat: A-SP-U (about 500 uL spit in 30 mL urine, individual A) diluted 1:40; mean of triplicate
[52] = biological target: Human statherin protein (human) (UniProt P02808); test: indirect ELISA; coat: B-SP-U (about 500 uL spit in 30 mL urine, individual B) diluted 1:40; mean of triplicate
[53] = biological target: Human statherin protein (human) (UniProt P02808); test: indirect ELISA; coat: sample 3, 12.5 uL saliva/100 uL in urine, diluted 1:40; mean minus saliva-free urine blank
[54] = biological target: Human statherin protein (human) (UniProt P02808); test: indirect ELISA; coat: sample 4, 6.25 uL saliva/100 uL in urine, diluted 1:40; mean minus saliva-free urine blank
[55] = biological target: Human statherin protein (human) (UniProt P02808); test: indirect ELISA; coat: A-SB-U (buccal swab stirred in 30 mL urine, individual A) diluted 1:40; mean of triplicate
[56] = biological target: Human statherin protein (human) (UniProt P02808); test: indirect ELISA; coat: B-SB-U (buccal swab stirred in 30 mL urine, individual B) diluted 1:40; mean of triplicate
[57] = biological target: Human statherin protein (human) (UniProt P02808); test: indirect ELISA; coat: sample 5, 3.125 uL saliva/100 uL in urine, diluted 1:40; mean minus saliva-free urine blank
[58] = biological target: Human statherin protein (human) (UniProt P02808); test: indirect ELISA; coat: sample 6, 1.5625 uL saliva/100 uL in urine, diluted 1:40; mean minus saliva-free urine blank
[59] = biological target: Human statherin protein (human) (UniProt P02808); test: indirect ELISA; coat: sample 7, 0.78125 uL saliva/100 uL in urine, diluted 1:40; mean minus saliva-free urine blank

Sequence of UniProt P02808 (P02808 20-62 limits assumed): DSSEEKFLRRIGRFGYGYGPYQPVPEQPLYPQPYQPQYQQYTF

Statherin Antibody (N-16), Santa Cruz Biotechnology, Inc. (Catalog No. sc-28112)
OD405 [1]: 1.21 OD405 | OD405 [2]: 1.22 OD405 | OD405 [3]: 1.24 OD405 | OD405 [4]: 0.325 OD405 | OD405 [5]: 0.289 OD405 | OD405 [6]: 0.394 OD405 | OD405 [7]: 0.171 OD405 | OD405 [8]: 0.151 OD405 | OD405 [9]: 0.144 OD405 | OD405 [10]: 0.147 OD405 | OD405 [11]: 0.114 OD405 | OD405 [12]: 0.114 OD405 | OD405 [13]: 0.161 OD405 | OD405 [14]: 0.129 OD405 | OD405 [15]: 0.12 OD405 | OD405 [16]: 0.16 OD405 | OD405 [17]: 0.14 OD405 | OD405 [18]: 0.131 OD405 | OD405 [19]: 0.132 OD405 | OD405 [20]: 0.117 OD405 | OD405 [21]: 0.114 OD405 | OD405 [22]: 0.091 OD405 | OD405 [23]: 0.083 OD405 | OD405 [24]: 0.075 OD405 | OD405 [25]: 0.069 OD405 | OD405 [26]: 0.06 OD405 | OD405 [27]: 0.057 OD405 | OD405 Mean [28]: 1.22 OD405 | OD405 Mean [29]: 0.336 OD405 | OD405 Mean [30]: 0.155 OD405 | OD405 Mean [31]: 0.125 OD405 | OD405 Mean [32]: 0.137 OD405 | OD405 Mean [33]: 0.144 OD405 | OD405 Mean [34]: 0.121 OD405 | OD405 Mean [35]: 0.083 OD405 | OD405 Mean [36]: 0.062 OD405 | OD405 [37]: 0.207 OD405 | OD405 [38]: 0.229 OD405 | OD405 [39]: 0.236 OD405 | OD405 [40]: 0.171 OD405 | OD405 [41]: 0.168 OD405 | OD405 [42]: 0.165 OD405 | OD405 [43]: 0.331 OD405 | OD405 [44]: 0.287 OD405 | OD405 [45]: 0.291 OD405 | OD405 [46]: 0.318 OD405 | OD405 [47]: 0.311 OD405 | OD405 [48]: 0.289 OD405 | OD405 Mean - Blank mean [49]: 0.125 OD405 | OD405 Mean - Blank mean [50]: 0.095 OD405 | OD405 Mean [51]: 0.224 OD405 | OD405 Mean [52]: 0.168 OD405 | OD405 Mean - Blank mean [53]: 0.107 OD405 | OD405 Mean - Blank mean [54]: 0.114 OD405 | OD405 Mean [55]: 0.303 OD405 | OD405 Mean [56]: 0.306 OD405 | OD405 Mean - Blank mean [57]: 0.091 OD405 | OD405 Mean - Blank mean [58]: 0.053 OD405 | OD405 Mean - Blank mean [59]: 0.032 OD405
